No end group written: not given here.
T1: HBD wt peptide (hepcidin binding domain of ferroportin with two arginines at each end)
T1 construct: Synthetic peptide; also called I-HBD (when immobilized on agarose beads or 96-well plates); HBD-beads
T1 peptide: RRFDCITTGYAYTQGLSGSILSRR

B1: Hep20 (hepcidin 20, hepcidin lacking the five amino terminal amino acids) (peptide)
peptide: ICIFCCGCCHRSKCGMCCKT
modifications: ends and bridges not checked; also: native intramolecular disulfides, pairing not given here
B2: hepcidin (hepcidin 25, native non-radioactive hepcidin) (peptide, UniProt P81172 60-84, looked up)
peptide: DTHFPICIFCCGCCHRSKCGMCCKT
modifications: ends and bridges not checked; also: native intramolecular disulfides, pairing not given here
notes: mature; Synthetic peptide; also called Hep 25; Hep25

Assays:
[1] = target: T1, HBD wt peptide (hepcidin binding domain …); test: binding to HBD, data not shown
[2] = target: T1, HBD wt peptide (hepcidin binding domain …); test: competition with sub saturating ^125I-hepcidin (0.6 ug/ml) for bead-immobilized HBD (I-HBD), 18 h at 37 C, gamma counting (FIG. 2B)
Experimental: FIGS. 2A-C illustrates that the binding of ¹²⁵I-hepcidin to HBD is specific and temperature dependent. In FIG. 2A peptides (HBD, scrambled-HBD or mutant (C326Y HBD) were conjugated to beads and ¹²⁵I-hepcidin was added to the bead-immobilized peptides (I-HBD) for 18 hours at 37° C. (black bars) or 4° C. (grey bars). The beads were washed and the amount of ¹²⁵I-hepcidin bound to the I-HBD was determined. In FIG. 2B a sub saturating concentration of ¹²⁵I-hepcidin (0.6 μg/ml) was incubated with I-HBD for 18 hours at 37° C. in the presence or absence of known concentrations of either hepcidin 25 (Hep 25-open circles) or hepcidin 25 synthesized with a tyrosine substitution at position M21 (Y-Hep 25) and the amount of radioactivity bound to the I-HBD determined. In FIG. 2C sub saturating levels of ¹²⁵I-hepcidin were incubated with I-HBD at different temperatures.
HBD peptides were immobilized by covalently attaching them to agarose beads. Immobilization was performed using AminoLink Plus Immobilization Kit (Pierce) following the manufacturer's instructions. 1.0 mg of HBD peptide was used per 2.0 ml of AminoLink beads. To measure hepcidin concentrations in biological fluids, samples were mixed with a defined concentration of ¹²⁵I-hepcidin and then added to HBD conjugated beads. […] The fluid was removed and the radioactivity bound to beads was determined by gamma counting (Perkin/Elmer).

| Binder | binding result [1] | apparent K [2] [nM] |
| --- | --- | --- |
| B1 | no binding |  |
| B2 |  | ~200 |

— patent US20100292147A1 (UNIVERSITY OF UTAH RESEARCH FOUNDATION, published 2010)
